Data as given in paper PMC5699047 (Proceedings of the National Academy of Sciences of the …, 2017).

Target: T1, MBP-COP1 (Arabidopsis, UniProt P43254 1-675)
T1 sequence (looked up): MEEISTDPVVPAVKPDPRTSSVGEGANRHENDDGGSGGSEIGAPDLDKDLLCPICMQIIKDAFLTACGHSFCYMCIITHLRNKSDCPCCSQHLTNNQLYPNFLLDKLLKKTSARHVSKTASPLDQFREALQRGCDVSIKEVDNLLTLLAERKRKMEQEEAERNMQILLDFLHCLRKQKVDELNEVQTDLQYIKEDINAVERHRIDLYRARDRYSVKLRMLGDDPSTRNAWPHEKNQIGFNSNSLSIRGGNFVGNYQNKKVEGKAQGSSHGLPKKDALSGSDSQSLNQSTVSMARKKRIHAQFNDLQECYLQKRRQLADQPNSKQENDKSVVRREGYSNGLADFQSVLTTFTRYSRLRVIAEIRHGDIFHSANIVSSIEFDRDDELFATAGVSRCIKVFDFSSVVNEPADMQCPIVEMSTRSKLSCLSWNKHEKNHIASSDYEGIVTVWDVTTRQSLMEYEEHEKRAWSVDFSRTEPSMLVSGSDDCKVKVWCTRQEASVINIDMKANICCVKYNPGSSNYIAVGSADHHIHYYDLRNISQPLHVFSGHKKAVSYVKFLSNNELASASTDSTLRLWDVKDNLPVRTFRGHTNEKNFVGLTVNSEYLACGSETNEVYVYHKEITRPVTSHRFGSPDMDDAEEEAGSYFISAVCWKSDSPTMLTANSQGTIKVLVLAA
Test: pull-down

B1: GST-WDL3 (natural protein)
chain: not shown
- binding result: binds
